The test has as its target T1, long isoform of the mouse leptin receptor (Mus musculus, UniProt P48356).
T1 construct: expressed in transfected cells; host or cells: PC12 (rat pheochromocytoma), transient electroporation with pMET7-mLRlo
T1 sequence (P48356 22-1162): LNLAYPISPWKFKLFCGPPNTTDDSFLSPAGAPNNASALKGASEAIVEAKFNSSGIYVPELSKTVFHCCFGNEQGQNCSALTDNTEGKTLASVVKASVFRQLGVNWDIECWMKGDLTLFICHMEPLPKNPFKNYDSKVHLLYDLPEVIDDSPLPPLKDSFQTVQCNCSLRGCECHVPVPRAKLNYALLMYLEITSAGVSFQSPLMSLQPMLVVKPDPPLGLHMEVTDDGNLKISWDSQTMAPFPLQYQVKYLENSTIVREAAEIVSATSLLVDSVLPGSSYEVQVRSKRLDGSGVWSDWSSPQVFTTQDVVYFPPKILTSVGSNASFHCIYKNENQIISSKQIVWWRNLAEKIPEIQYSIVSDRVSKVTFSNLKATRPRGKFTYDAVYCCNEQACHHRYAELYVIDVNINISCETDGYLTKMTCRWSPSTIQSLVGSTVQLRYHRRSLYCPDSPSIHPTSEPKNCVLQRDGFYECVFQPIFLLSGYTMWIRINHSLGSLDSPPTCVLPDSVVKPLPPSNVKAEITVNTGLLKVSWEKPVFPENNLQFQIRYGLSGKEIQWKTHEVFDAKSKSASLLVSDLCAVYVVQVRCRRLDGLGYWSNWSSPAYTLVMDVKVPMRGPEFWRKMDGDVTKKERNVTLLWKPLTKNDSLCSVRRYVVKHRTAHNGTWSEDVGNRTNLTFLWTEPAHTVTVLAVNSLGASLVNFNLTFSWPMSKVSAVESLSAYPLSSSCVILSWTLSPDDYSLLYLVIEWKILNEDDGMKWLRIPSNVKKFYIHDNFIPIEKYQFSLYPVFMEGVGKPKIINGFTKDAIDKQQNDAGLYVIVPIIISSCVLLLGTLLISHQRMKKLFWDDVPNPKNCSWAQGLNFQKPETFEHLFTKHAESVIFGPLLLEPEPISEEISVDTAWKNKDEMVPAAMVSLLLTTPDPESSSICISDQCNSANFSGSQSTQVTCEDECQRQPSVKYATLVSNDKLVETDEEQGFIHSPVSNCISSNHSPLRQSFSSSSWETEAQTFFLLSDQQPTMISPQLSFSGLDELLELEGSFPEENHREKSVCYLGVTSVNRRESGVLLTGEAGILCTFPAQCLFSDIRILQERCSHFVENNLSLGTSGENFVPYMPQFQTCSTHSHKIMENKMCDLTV
Description: rNPY promoter luciferase reporter in PC12 cells transiently transfected with pMET7-mLRlo. The test is classed as cell-based. The protocol: FIG. 1A. Leptin-induced NPY promoter activity in transiently transfected PC12 cells. PC12 cells were co-transfected with control vector (columns 1 and 2), pMET7-mLRsh (columns 3 and 4) or pMET7-mLRlo (columns 5 and 6) together with the pGL3-rNPYluc reporter. The different subcultures were mock stimulated (growth medium alone) or treated with mouse leptin (100 ng/ml) for 72 hours. Luciferase activity in cell lysates is shown; data represent the mean±standard deviation values of assays performed in triplicate.
FIG. 1B. Forskolin co-stimulation on leptin-induced pGL3-rNPY luciferase activity. PC12 cells were transiently co-transfected with pMET7-mLRlo and the pGL3-rNPYluc reporter. […]
In order to study leptin receptor signaling in a neuro-endocrine-related cell type, we transiently transfected PC12 cells with expression vectors for the long or the short isoform of the mouse leptin receptor (pMET7-mLRlo and pMET7-mLRsh respectively) and monitored gene induction by leptin. […]
Luciferase activity was measured in transfected cells by chemiluminescence. […] 70 μl of luciferase substrate buffer (20 mM Tricine; 1.07 mM (MgCO3)4Mg(OH)25H2O; 2.67 mM MgSO4; 0.1 mM EDTA; 33.3 mM DTT; 270 μM Coenzyme A (lithium salt); 470 μM Luciferin (Duchefa); 530 μM ATP, final pH 7.8) was added to 100 μl of cell lysate and measured for 5 seconds by TopCount.NXT Chemiluminescence Counter (Packard).
On the technique in general: Reporter assays use an easily measured gene product as a stand-in for the process of interest.

The text below walks through data of patent US7291458B2, “Leptin-mediated gene-induction” (Vlaams Interuniversitair Instituut Voor Biotechnologie VZW, priority 1998, dated 2007).

B1: leptin: mouse leptin (R&D Systems), ob gene product, used on PC12 cells at 100 ng/ml (protein)
chain: VPIQKVQDDTKTLIKTIVTRINDISHTQSVSAKQRVTGLDFIPGLHPILSLSKMDQTLAVYQQVLTSLPSQNVLQIANDLENLRDLLHLLAFSKSCSLPQTSGLQKPESLDGVLEASLYSTEVVALSRLQGSLQDILQQLDVSPEC
Take B1: the “luciferase activity, rNPY reporter” value (PC12 cells co-transfected with pGL3-rNPYluc and pMET7-mLRlo, leptin alone) is on record as “moderate stimulation”. Further, the optimal co-stimulatory concentration (leptin plus forskolin, rNPY luciferase) came out at 100 ng/mL.
